Measurements from article PMC12614216.

Legend:
[1] = target: OrfL (OB-fold protein encoded by ICESt3 of Streptococcus thermophilus), purified, untagged (Streptococcus thermophilus (ICESt3)); assay: SEC-MALS; isolated OrfM or OrfL at 30 µM; Superdex 200 Increase 10/300 GL; 20 mM Tris-HCl pH 7.5, 150 mM NaCl; monomer and dimer
[2] = target: OrfL (OB-fold protein encoded by ICESt3 of Streptococcus thermophilus), purified, untagged (Streptococcus thermophilus (ICESt3)); assay: switchSENSE (fluorescence proximity sensing); OrfL covalently coupled to a 48-mer DNA nanolever on the chip; OrfM injected at 0.625 to 10 µM; PE40 buffer (10 mM NaP pH 7.4, 40 mM NaCl, 0.05% Tween 20); 25°C
[3] = target: OrfM (OB-fold protein encoded by ICESt3 of Streptococcus thermophilus), purified, untagged (Streptococcus thermophilus (ICESt3)); assay: SEC-MALS; isolated OrfM or OrfL at 30 µM; Superdex 200 Increase 10/300 GL; 20 mM Tris-HCl pH 7.5, 150 mM NaCl; monomer and dimer
[4] = target: OrfL (OB-fold protein encoded by ICESt3 of Streptococcus thermophilus), purified, untagged (Streptococcus thermophilus (ICESt3)); assay: ITC; OrfM at 280 µM injected into OrfL at 28 µM; 298 K; 20 mM Tris-HCl pH 7.5, 300 mM NaCl; single binding site model
[5] = target: OrfL (OB-fold protein encoded by ICESt3 of Streptococcus thermophilus), purified, untagged (Streptococcus thermophilus (ICESt3)); assay: SEC-MALS; OrfL and OrfM mixed at 1:1 and 2:1 OrfL:OrfM molar ratios; Superdex 200 Increase 10/300 GL; 20 mM Tris-HCl pH 7.5, 150 mM NaCl

Substance	stoichiometry N [1]	Kd [2]	koff [2]	kon [2]	fraction of the injected protein found as dimer [3]	stoichiometry N [3]	Ka [4]	Kd [4]	dH [4]	stoichiometry N [4]	fraction of the sample found as the complex (1:1 ratio) [5]	stoichiometry N [5]
OrfL (OB-fold protein encoded by ICESt3 of Streptococcus thermophilus), purified, untagged (natural protein)	2											
OrfM (OB-fold protein encoded by ICESt3 of Streptococcus thermophilus), purified, untagged (natural protein)		311 nM	0.019 s⁻¹	62000 M⁻¹ s⁻¹	5%	2	7.1e+06 M⁻¹	140 nM	-35.9 kcal/mol	0.87	92%	1
